In the supplement of paper PMC12042874 one finds amyloid nucleation score data, which are given here for 140 substances.

± gives the uncertainty stated by the source.

This data set is described as follows: amyloid nucleation score (Sup35N fusion, yeast selection) (log enrichment); library NNK1; higher = more nucleation; inactive = no reads after selection. In short, it runs like this:
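Libraries of peptides of 20 random codons fused to Sup35N were expressed in psi-negative yeast and induced 24 hours with 100 μM copper sulfate. Selection was 7 days at 30°C on medium lacking adenine and uracil, and plasmid inserts were Illumina-sequenced before and after selection. Nucleation score is the DiMSum log enrichment of output over input reads, centred on the mode score of non-aggregating sequences, and sequences with under 100 input reads were left out.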

In turn, VITNHDDE registered an amyloid nucleation score of 0.51 ± 0.47.

As to LYIMLLLLLLTSQYT, the amyloid nucleation score was -0.347 ± 0.63.

Consider VNPYMMLAQY, for which the amyloid nucleation score was 0.748 ± 0.38.

RIRVDVEWSARRPG showed an amyloid nucleation score of 2.19 ± 0.17.

In turn, SVCGSLSC showed an amyloid nucleation score of 1.16 ± 0.76.

As to WCCGLCVLMQLNTVMLSKGL, the amyloid nucleation score is 5.33 ± 0.066.

AKSREWGDIARFSHPPALRA displayed an amyloid nucleation score of -0.147 ± 0.4.

In turn, EIWWMVKVQLSVEYSSGNRL returned an amyloid nucleation score of 1.16 ± 0.39.

In turn, SLYYGGLQER yielded an amyloid nucleation score of -0.02 ± 0.29.

QMIMAMNSFLISYLNHMWPG: the amyloid nucleation score turned out to be 2.13 ± 0.1.

On to LSQNLAPGIVFFAV, for which the amyloid nucleation score is -1.02 ± 1.7.

Substance DYDGWQLPMCNNITMTWKVC returned an amyloid nucleation score of 2.7 ± 0.12.

For the substance SHCYSLGMLKVWLGQIKTFG, the amyloid nucleation score is 1.8 ± 0.27.

The substance RHVNEAESAGEGTGNYSRYS showed an amyloid nucleation score of -0.206 ± 0.41.

Substance SWSRRDVYKEGLDGGMGEGA displayed an amyloid nucleation score of -1.07 ± 1.3.

Substance VLSAGVCFMTRVRSVFDGVH displayed an amyloid nucleation score of 2.14 ± 0.24.

In turn, IALASCVCLSACWTLDVNSM registered an amyloid nucleation score of 0.989 ± 0.31.

MRQAGACNLRQSHVEQVCQQ: the amyloid nucleation score was 0.135 ± 0.38.

With WFEVNSACQLSNLGGLTEFR, the amyloid nucleation score is -0.417 ± 1.4.

CRNTLPGP: the amyloid nucleation score is -0.398 ± 0.44.

For KWHTRENCFSFLYVYFLMFP, the amyloid nucleation score result was “inactive”.

Regarding KTRNCTNFWLQRGTW, the amyloid nucleation score was -0.28 ± 0.76.

Substance YLCQRHSFTRSRYHFLLRPV showed an amyloid nucleation score of -1.02 ± 1.2.

The substance VRYMWFAAGTREVTWSAFFM returned an amyloid nucleation score of -0.014 ± 0.32.

Consider TWYHGSRMSLRVTGRILQCG, for which the amyloid nucleation score is -0.43 ± 1.1.

In turn, PARATMSSLRPTSNLPFFPA had an amyloid nucleation score of -0.459 ± 1.1.

Take YWTDGLFGDAT: the amyloid nucleation score came to 0.141 ± 0.31.

GSFYSGI yielded an amyloid nucleation score of 1.6 ± 0.76.

ELVISMGRLWVG gave an amyloid nucleation score of 2.02 ± 0.17.

As to REYETWLQSQRQNLSDLQK, the amyloid nucleation score came out at 0.173 ± 0.33.

The substance MLHYAWVGLSVNDMVLPEMC gave an amyloid nucleation score of -0.78 ± 0.67.

On to NSVISMAPYLFTCIENVKSK, for which the amyloid nucleation score stood at 0.315 ± 0.42.

As to TRWCVRERVSFKRAGQCDRV, the amyloid nucleation score result is “inactive”.

On to FLMKMKMSVFVLEYSILECM, for which the amyloid nucleation score was -1.12 ± 1.1.

TLRCDFLPRNKF yielded an amyloid nucleation score of -0.595 ± 1.4.

On to YLCRLDLTTDRKSTGLLCGC, for which the amyloid nucleation score was determined as 0.022 ± 0.34.

With PERTSMGSKFTTDN, the amyloid nucleation score is -0.382 ± 0.43.

The substance CMYFFRVTGKINNINSLYCW yielded an amyloid nucleation score of -0.824 ± 0.38.

DFRLGHDFWANKSFFFTSPN registered an amyloid nucleation score of -0.028 ± 0.31.

In turn, LFLLEINVSSRIWPSFPKSY registered an amyloid nucleation score of 0.257 ± 0.42.

The substance PCVQSHMCYYNMSGITKGFR came in with an amyloid nucleation score of -0.332 ± 0.43.

RCGRAINGVQCVHWFVMSEG: the amyloid nucleation score came out at 0.429 ± 0.58.

Substance AYSERTSGTMTRVWWDLRSR came in with an amyloid nucleation score of -0.795 ± 1.1.

As to IYAYAIDSFRSLVFFVFMFG, the amyloid nucleation score result is “inactive”.

Substance YSILMVNWMFWCFVEAWNHD gave an amyloid nucleation score of 0.623 ± 0.56.

Regarding IYGAAFVAEGWTPTLSVGDK, the amyloid nucleation score was 0.141 ± 0.39.

LWGDYPFRDVPRTMVDQRRN showed an amyloid nucleation score of 0.079 ± 0.98.

Take NVSSCDW: the amyloid nucleation score is -1.22 ± 0.71.

ENIALIYLECVFKVGSRCFE yielded an amyloid nucleation score of 0.198 ± 0.24.

In the case of TNYDFMVCCFKPSMAYGKCM, the amyloid nucleation score was -0.354 ± 0.63.

For VSPDYMSYCIGVYLINLISV, the amyloid nucleation score came out at 0.354 ± 0.59.

Substance AFDIVDRSRYILY gave an amyloid nucleation score of 0.58 ± 0.6.

Consider TVIYSNYAVICMGSMSQVDT, for which the amyloid nucleation score was found to be 7.762 ± 0.059.

LYNLGHDSVGDLSFFCLRGW registered an amyloid nucleation score of -0.427 ± 0.36.

The substance HSALIQSIEGVINVGCGVKK displayed an amyloid nucleation score of 1.25 ± 0.23.

In turn, RYRRFCFALVYMRKNI had an amyloid nucleation score of -0.184 ± 0.42.

ALILTVIDHVSAHYYVAEDV yielded an amyloid nucleation score of 5.59 ± 0.081.

As to CFEVHTHSESLL, the amyloid nucleation score was -0.662 ± 0.72.

For CEVAQCHYLVVWFCAWAWRY, the amyloid nucleation score came to 0.939 ± 0.68.

TVIEIKL registered an amyloid nucleation score of 1.28 ± 0.85.

For TASIDEQHHWTRQY, the amyloid nucleation score was determined as 0.32 ± 0.36.

MLSGP had an amyloid nucleation score of -0.161 ± 0.67.

Take VPNVGYI: the amyloid nucleation score came out at 0.369 ± 0.54.

For the substance FCMTTSVSSNTLV, the amyloid nucleation score is -0.013 ± 0.94.

Substance IRTVAR returned an amyloid nucleation score of 0.142 ± 0.38.

DIFVLMRAMWHRGMI registered an amyloid nucleation score of 0.857 ± 0.8.

In the case of YSLLTVASREVSKQSGTSRI, the amyloid nucleation score was determined as 0.42 ± 1.2.

Substance SVYKVPVVYGINTRFYFSES displayed an amyloid nucleation score of 1.18 ± 0.33.

In turn, ISNDYGATMFNLGCYI displayed an amyloid nucleation score of 1.17 ± 0.18.

On to LGWDDVVY, for which the amyloid nucleation score worked out at 0.314 ± 0.85.

For TSSFFTDIDFNG, the amyloid nucleation score was -0.363 ± 0.7.

Substance FVIDACIFC yielded an amyloid nucleation score of 9.445 ± 0.071.

In the case of LGASGLGCIF, the amyloid nucleation score stood at 4.56 ± 0.055.

With HISLHYYKICNRFDLYNKDS, the amyloid nucleation score amounted to 7.107 ± 0.065.

In the case of VLYIGYYCQKSMEVLVTRSR, the amyloid nucleation score was 1.06 ± 0.69.

THVIRVGNQRSLRVFSRGVS gave an amyloid nucleation score of 1.32 ± 0.41.

Substance RVMVSGNAPSFVLNGGVSVR gave an amyloid nucleation score of 0.874 ± 0.62.

Substance NHSGSFKCGRIVSRYDD showed an amyloid nucleation score of -1.37 ± 0.95.

On to YHVDC, for which the amyloid nucleation score is -0.13 ± 0.34.

Substance TVVTYVRNNFKEVHSCVEVS returned an amyloid nucleation score of -0.607 ± 0.47.

In turn, RFDYGGIESGVAGCVRVRDY yielded an amyloid nucleation score of 0.473 ± 0.67.

On to HFCFGC, for which the amyloid nucleation score is 7.377 ± 0.062.

RRNVM registered an amyloid nucleation score of 0.519 ± 0.25.

On to TLIGFWPTRSFSSAVRYNPN, for which the amyloid nucleation score was -0.116 ± 1.

Take SLVMKVPLFECVCIGMCGRA: the amyloid nucleation score came out at 0.448 ± 0.52.

In the case of TDSCYHCNLYMYHSS, the amyloid nucleation score is 0.723 ± 0.9.

In turn, GYGIGDGRVHTQNKVGCYGG showed an amyloid nucleation score of 1.33 ± 0.66.

For the substance ELNPMFKTQHWLNSWNIWLL, the amyloid nucleation score was found to be 2.47 ± 0.089.

As for YRGWVVQGIHLKFSCFAELR, the amyloid nucleation score came out at 0.333 ± 0.97.

GSRSLLQR displayed an amyloid nucleation score of -1.06 ± 1.2.

In the case of RNSLNTLSPTARCSVSTFVR, the amyloid nucleation score came out at 0.562 ± 1.2.

In turn, NMEITYLSVFVAVYVHLHFF showed an amyloid nucleation score of -0.728 ± 0.88.

As for STVFNGSGGEDVKKCPPHA, the amyloid nucleation score result was “inactive”.

GRGRKVYLVDLGSGL showed an amyloid nucleation score of -0.285 ± 0.53.

FSLNQCVKGHVFGATICTLR: the amyloid nucleation score came to 1.86 ± 0.43.

With YACESGMEIMHYRHMSGGVV, the amyloid nucleation score is 0.732 ± 1.

Turning to KLTCRDSRFVRAIFVMSKSA, the amyloid nucleation score was -0.458 ± 0.3.

Regarding VWLPYIFIDTSY, the amyloid nucleation score result is “inactive”.

Take FFGVLNIPNFCVSMF: the amyloid nucleation score was 0.645 ± 0.69.

In the case of LDTDFSPCRTAVLVAIMHRG, the amyloid nucleation score was found to be 0.415 ± 0.74.

In turn, FFFRKTSY displayed an amyloid nucleation score of 0.552 ± 0.87.

Regarding LEGHNCADQLLSFLTSSYSL, the amyloid nucleation score is 1.34 ± 0.44.

In turn, SDPYDPRIVVVRIKLLLVME registered an amyloid nucleation score of -0.153 ± 1.4.

SCVQRVLSIVNSFGRRSQTR: the amyloid nucleation score was determined as 0.269 ± 0.43.

Take TTLWLVPYVC: the amyloid nucleation score was 0.529 ± 0.58.

In turn, YTLILREIYWCC registered an amyloid nucleation score of -0.128 ± 0.54.

In the case of TIGPSGNLEGCVLSVGASNI, the amyloid nucleation score was -1.35 ± 1.2.

Consider IMKSFMDATYVSCFWILMPA, for which the amyloid nucleation score came out at 1.57 ± 0.53.

The substance LRRLSIANLFIFAFSWRFYW gave an amyloid nucleation score of 1.03 ± 0.52.

NLSTCDE yielded an amyloid nucleation score of 1.03 ± 0.58.

Consider TRTESVMVLWRRMAVGGCGR, for which the amyloid nucleation score is 0.362 ± 0.65.

In turn, RSEGKNMADS gave an amyloid nucleation score of -0.46 ± 1.1.

As to LDRKIK, the amyloid nucleation score was determined as 0.651 ± 0.39.

Regarding IWMWEWQHCSEARKNMMWVS, the amyloid nucleation score was 2.1 ± 0.13.

Consider IRTVKADNMRIWQAQRSSEI, for which the amyloid nucleation score came to 0.157 ± 0.87.

For CNRLIHDMHVCLTNE, the amyloid nucleation score entry was “inactive”.

In turn, IRLMRWGRCVGISVEGVC gave an amyloid nucleation score of 0.789 ± 0.46.

The substance DRRIEYVVDLGSSCGMTTHV gave an amyloid nucleation score of 0.049 ± 0.41.

In turn, RPTLDVIRNCRVDFAEKGGN showed an amyloid nucleation score of 0.711 ± 0.35.

As to LYIFLNEDDRFSMKQGVKGG, the amyloid nucleation score came out at 0.546 ± 0.83.

As to TFECIIWFLGATVMSMQLFI, the amyloid nucleation score was determined as 1.93 ± 0.62.

Turning to RIYTTWGHYDNDHQIYLFRG, the amyloid nucleation score is -0.601 ± 0.36.

SCPKVITNVLSSKTYPRMVG returned an amyloid nucleation score of 1.11 ± 0.34.

NRSWYIRVLHRATSVSLKSF yielded an amyloid nucleation score of -0.226 ± 0.39.

For VSLRAAWNLC, the amyloid nucleation score was determined as 0.606 ± 0.71.

Regarding TVRGSAFLIKWKLI, the amyloid nucleation score is -0.86 ± 0.9.

The substance ITVSYDKGFSFNLWGIHFKV came in with an amyloid nucleation score of 0.071 ± 0.28.

Substance LLSTHVMQVLPMNQAKNILK had an amyloid nucleation score of -0.935 ± 0.29.

Substance SGKLLISCVYSLENMC had an amyloid nucleation score of 1.39 ± 0.72.

Regarding FHPAMVVICILWHKR, the amyloid nucleation score stood at 1.62 ± 0.37.

As to TMFLVSRDFRGIVLYWITTF, the amyloid nucleation score was -0.364 ± 0.78.

With VFLMLEVCLMV, the amyloid nucleation score came to 0.362 ± 0.72.

EYLSMNRLRERSYYLGNRTF registered an amyloid nucleation score of 0.077 ± 0.69.

As for YENHGISDLSCIFTPYKV, the amyloid nucleation score entry is “inactive”.

As to SCRTLANITLCPRSIQF, the amyloid nucleation score was 0.055 ± 0.65.

Turning to PLVGGRNCGKDFPSLTDTPV, the amyloid nucleation score was -0.06 ± 0.27.

The substance RLAFLIDRWVALRNEWRKGV showed an amyloid nucleation score of -0.791 ± 0.72.

For the substance HRILVGGFRSCVMT, the amyloid nucleation score was determined as 0.311 ± 0.32.

The substance IHIWSSCLSNYKVILGAEVL returned an amyloid nucleation score of 0.407 ± 0.28.

Consider LCAFMSYLSSIFSRYNCFYV, for which the amyloid nucleation score was found to be 0.268 ± 0.19.
